Values belong to the substance of their own block, whether it stands above or below them.
Assays:
[1] = target: β2V2R fused to the ProLink tag (inactive portion of β-galactosidase), in U2OS PathHunter cells; assay: split reporter (BiFC, NanoBiT); PathHunter β-galactosidase enzyme fragment complementation in U2OS cells co-expressing βARR2 (enzyme acceptor) and β2V2R (ProLink); modulators or vehicle 30 min, then isoproterenol 60 min at 37 °C
[2] = test system: Gi-mediated inhibition of adenylyl cyclase (D2R, M2R); assay: GloSensor cAMP Gi activity assay at D2R or M2R; assay type: cell-based; conditions: modulators 50 μM, 15 min; PTX 100 ng/mL overnight; forskolin 2 μM
Experimental: Gi-mediated inhibition of adenylyl cyclase was assessed using the GloSensor cAMP bioluminescence biosensor (Promega). HEK293 cells were transiently transfected with D2R or M2R together with the GloSensor cAMP reporter construct, using FuGENE 6 per the manufacturer’s protocol. Cells were seeded into poly-D-lysine-coated white clear-bottom 96-well plates at 60,000 cells per well and cultured for 24 h. GloSensor reagent was added per the manufacturer’s instructions and cells were equilibrated for 1 h at room temperature. Where indicated, pertussis toxin (PTX; 100 ng ml^−1) was applied overnight as a positive control for Gi blockade. Compounds (Cmpd-5, Cmpd-46 or Cmpd-64; 50 μM) or vehicle (DMSO) in HBSS supplemented with 20 mM HEPES (pH 7.4) and 0.05% BSA were applied for 15 min at room temperature. Cells were stimulated with forskolin (2 μM, 5 min), followed by concentration-response stimulation with quinpirole (D2R) or acetylcholine (M2R). Luminescence was recorded every 5 min over 30 min using a CLARIOstar microplate reader (BMG Labtech). Forskolin-stimulated cAMP, quantified at 10 min after agonist addition, was normalized to the maximal forskolin response per condition. Gi activity was derived from the inhibitory plateau and expressed as a percentage of the DMSO plus agonist control.

[3] = target: phosphorylated β2V2R (pβ2V2R): N-terminal Flag-tagged T4 lysozyme fusion-β2V2R (β2AR residues 1–341 fused to V2R residues 328–372) (UniProt P07550)

βARR2 fused to the enzyme acceptor (EA) portion of β-galactosidase, in U2OS PathHunter cells, sequence (P32121 whole entry, the tested form may be a part): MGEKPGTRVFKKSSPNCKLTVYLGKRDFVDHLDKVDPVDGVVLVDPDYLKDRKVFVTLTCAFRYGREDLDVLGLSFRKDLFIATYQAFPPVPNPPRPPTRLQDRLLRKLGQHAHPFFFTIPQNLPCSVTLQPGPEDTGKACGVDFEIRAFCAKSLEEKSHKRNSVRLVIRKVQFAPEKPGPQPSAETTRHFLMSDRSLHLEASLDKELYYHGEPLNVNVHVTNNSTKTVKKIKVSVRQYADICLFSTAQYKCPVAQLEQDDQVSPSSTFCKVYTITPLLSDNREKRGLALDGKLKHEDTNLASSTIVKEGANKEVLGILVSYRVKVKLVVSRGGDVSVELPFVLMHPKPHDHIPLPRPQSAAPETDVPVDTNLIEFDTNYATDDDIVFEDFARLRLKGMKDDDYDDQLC
β-arrestin2 (βARR2), rat, C terminus truncated at amino acid 394, sequence (P29067 1-394): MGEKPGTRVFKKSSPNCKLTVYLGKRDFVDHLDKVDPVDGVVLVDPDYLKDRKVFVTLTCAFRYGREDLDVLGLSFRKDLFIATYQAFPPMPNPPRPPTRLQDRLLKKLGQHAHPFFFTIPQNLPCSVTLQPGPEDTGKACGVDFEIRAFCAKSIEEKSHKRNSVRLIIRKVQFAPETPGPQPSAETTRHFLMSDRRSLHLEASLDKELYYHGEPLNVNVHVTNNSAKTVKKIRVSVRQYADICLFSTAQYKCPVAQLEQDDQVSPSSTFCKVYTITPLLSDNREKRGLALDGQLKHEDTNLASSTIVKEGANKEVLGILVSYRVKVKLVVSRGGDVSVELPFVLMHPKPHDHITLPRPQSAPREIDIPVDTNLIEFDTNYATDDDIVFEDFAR

reduction of Emax of Iso-induced recruitment with 50 μM Cmpd-46 [1]: 77.3% | reduction of Emax of Iso-induced recruitment with 50 μM Cmpd-64 [1]: 74.4%
Substance: βARR2 fused to the enzyme acceptor (EA) portion of β-galactosidase, in U2OS PathHunter cells (from UniProt P32121 1-409) (natural protein)

Substance: pertussis toxin
effect on agonist-induced, Gi-mediated cAMP reduction at D2R or M2R [2]: abolished this response entirely

reduction of β-arrestin-mediated high-affinity [^3H]-Fen binding to pβ2V2R by Cmpd-5, Cmpd-46 and Cmpd-64, each (100 μM) [3]: 40%
Substance: β-arrestin2 (βARR2), rat, C terminus truncated at amino acid 394 (from UniProt P29067 1-394) (domain or fragment)
